According to article doi:10.1101/2023.09.18.558202 (bioRxiv, 2023):

Biological target: the molecule itself
Experiment: SEC

B1: F420-dependent methylene-tetrahydromethanopterin reductase (Mer) from Methanocaldococcus jannaschii (enzyme, UniProt Q58929 1-331, looked up)
chain: MKFGIEFVPNEPIQKLCYYVKLAEDNGFEYCWITDHYNNRNVYMALTAIAMNTNKIKLGPGVTNPYVRSPAITASAIATLDELSGGRAVLGIGPGDKATFDALGIEWVKPVTTLKESIEVIRKLLAGERVSYEGKVVKIAGAALAVKPIQKAVPVYMGAQGPKMLETAGMIADGVLINASNPKDFEAAIPLIKKGAEAAGRSMDEIDVAAYACMSVDKNADKAKQAAVPVVAFIAAGSPPVVLERHGIDMEKVEAIRNALKSGNFPEAFKNVDDTMLEAFSIYGTPEDVVEKCKKLAEMGVTQIVAGSPIGPNKETAIKLIGKKVIPALKE
  stoichiometry N: 2
